Data published in US7229777B2, “Hairpin peptides with a novel structural motif and methods relating thereto” (Genentech, Inc., priority 2001, dated 2007).
Where two headings read alike, the source gives them in different places. Square brackets hold non-standard residues; d marks the D form. Ends that are not written are not given here.

Tests used:
[1] = CD-monitored thermal denaturation (two-state unfolding fit); format: physicochemical; conditions: for ΔCp / Tm / ΔHm: 20 μM peptide in 20 mM potassium phosphate; for ΔCp / Tm / ΔSm / ΔHm: pH 7.0; for Tm: CD at 229 nm; for ΔSm: calculated from the fit parameters (ΔHm/Tm), 20 μM peptide, 20 mM potassium phosphate; for ΔHm: ΔH at Tm
Description: Spectra were acquired with an Aviv Instruments, Inc. Model 202 spectrophotometer. Peptide concentrations were determined spectrophotometrically as described in Gill & von Hippel (1989) Anal. Biochem. 182:319–326. Melting curves were acquired at 229 nm with […] equilibration at each temperature and an averaging time of 15 s. Thermal denaturation was reversible, as judged by recovery of CD signal (≧95%) upon cooling. In addition, reverse melting curves were acquired for trpzips 1 and 4. Reverse and forward curves were identical in shape, with≦0.5 K shift in Tm. As a model for the unfolded state of the peptides, the melting curve (linear) of an equimolar mixture of the trpzip1 half peptides SWTWEG[SEQ ID NO: 14] and NKWTWK [SEQ ID NO: 15] was measured. Data for the trpzip peptides were then fit to a two-state unfolding equilibrium as described in Minor & Kim (1994) Nature 367:660–663, fixing the unfolded baseline. Folded baselines, Tm, ΔHm (ΔH at Tm), and ΔCp were allowed to vary. For trpzips 5 and 6, the unfolded baseline could be fit directly to the experimental data. ΔSm was calculated from the fit parameters (ΔHm/Tm). Errors in Table 2 were generated by the fitting algorithm (Kaleidagraph, Synergy Software) and were given to indicate the quality of the fits to the particular experimental data set. However, when fitting different data sets, ΔHm and ΔCp values varied by ˜10%, as is typical in thermal denaturation experiments. Becktel & Scheilman (1987) Biopolymers 26:1859–1877.
Fitting the trpzip denaturation curves in this manner required large shifts in Tm (˜5–10 K higher than the minimum in a derivative plot) and generated fits of lower quality. […] From our data on trpzips 4, 5 and 6, we can estimate ΔCp ˜200 cal mol^−1 K^−1 for the gb1 peptide, which is sufficient to explain the discrepancy between our population estimate for the gb1 hairpin and those previously reported (Munoz et al. (1997), supra; Honda et al. (2000), supra). Recently, a non-zero ΔCp (˜100 cal mol^−1 K^−1) was reported for the unfolding of a 12-residue hairpin related to gb1. Espinosa & Gellman (2000) Angew. Chem. Int. Ed. 39:2330–2333.

[2] = literature estimates, in water, gb1 at 278 K by NMR, cited from earlier work
[3] = Analytical (equilibrium) ultracentrifugation; format: physicochemical; conditions: for σobs/σcalc (reduced apparent molecular weight, observed/calculated): non-ideal single-species model, 20 mM potassium phosphate, 150 mM KCl, pH 7.1, 277 K
Description: Samples (in 20 mM potassium phosphate, 150 mM KCl, pH 7.1; 277 K) were analyzed in a Beckman XL-A ultracentrifuge at rotor speeds of 40 and 55 krpm. Peptide concentration was monitored by absorbance at or near 290 nm. Data for both speeds and two initial peptide concentrations (60 and 200 μM, […] data sets total per peptide) were fit simultaneously to a nonideal single species model using the program NONLIN. Johnson et al. (1981) Biophys. J. 36: 575–588.
Allowing nonideality improved the fit for the 200 μM samples while only slightly changing the reduced apparent molecular weight σ (˜+6%). For all 3 peptides, data from 60 μM samples fit an ideal model (FIG. 2) with random residuals. Expected σ values were determined from partial specific volumes based on residue composition, calculated buffer density, and monomer formula weights.

Substance | ΔCp [1] [cal mol^−1 K^−1] | Tm [1] [°C] | ΔSm [1] [cal mol^−1 K^−1] | ΔHm [1] [cal/mol] | unfolding free energy ([1]; 298 K) [kcal/mol] | Melting temperature higher than that of wt gb1 peptide ([1]; depending on the method used to estimate the folded population of gb1) | ΔCp, estimated from data on trpzips 4, 5 and 6 [1] [cal mol^−1 K^−1] | ΔGunf, estimated assuming additive stabilization from the two pairs ([1]; 298 K, estimated from trpzips 4, 5 and 6) [kcal/mol] | Hairpin population [2] [%] | Hairpin population ([2]; listed as GB1 hairpin) | Tm ([1]; listed as Trpzip1) [°C] | Dependence of thermal denaturation on peptide concentration ([1]; trpzip1 20–150 μM, trpzip4 100 μM vs. 20 μM) | σobs/σcalc (reduced apparent molecular weight, observed/calculated) [3] | Peptide concentration up to which monomeric [3]
GEWHWDDATKTWVWTE (GEWHWDDATKTWVWTE-NH2) [trpzip7] | 418 ± 4 | 80.2 ± 0.1 | 70.8 | 25030 ± 100 |  |  |  |  |  |  |  |  |  | 
GEWTWDDATKTWTVTE (GEWTWDDATKTWTVTE-NH2) [trpzip6] | 236 ± 17 | 44.6 ± 0.48 | 32.4 | 10290 ± 300 | 0.49 |  |  |  |  |  |  |  |  | 
GEWTWDDATKTWTWTE (GEWTWDDATKTWTWTE-NH2) [trpzip4] | 380 ± 4 | 70.0 ± 0.1 | 63.7 | 21860 ± 60 | 1.69 | at least 40 K |  |  |  |  |  |  |  | 
GEWTYDDATKTFTVTE (Streptococcus; Streptococcus Full The 41-56 residue fragment of the protein G B1 domain) [gb1, reference compound] |  |  |  |  |  |  | ~200 | ~-0.6 | ~40 | about 50% |  |  |  | 
GEWTYDDATKTFTWTE (GEWTYDDATKTFTWTE-NH2) [trpzip5] | 325 ± 10 | 42.7 ± 0.2 | 42.2 | 13320 ± 140 | 0.57 |  |  |  |  |  |  |  |  | 
GEWVWDDATKTWHWTE (GEWVWDDATKTWHWTE-NH2) [trpzip8] | 440 ± 4 | 79.1 ± 0.1 | 73.8 | 25980 ± 110 |  |  |  |  |  |  |  |  |  | 
GEWVWDDATKTWVWTE (GEWVWDDATKTWVWTE-NH2) [trpzip9] | 402 ± 2 | 92.0 ± 0.0 | 73.1 | 26690 ± 80 |  |  |  |  |  |  |  |  |  | 
SWTWEGNKWTWK (SWTWEGNKWTWK-NH2) [trpzip1] | 231 ± 4 | 49.9 ± 0.3 | 33.4 | 10790 ± 120 |  |  |  |  |  |  | 50 | does not shift with peptide concentration | 1.02 ± 0.04 | 
SWTWENGKWTWK (SWTWENGKWTWK-NH2) [trpzip2] | 281 ± 2 | 71.9 ± 0.1 | 48.6 | 16770 ± 60 |  |  |  |  |  |  |  |  | 1.01 ± 0.04 | at least 200 μM
SWTWEpNKWTWK (SWTWE[dP]NKWTWK-NH2; N-terminus assumed; SMILES C[C@@H](O)[C@H](NC(=O)[C@H](Cc1c[nH]c2ccccc12)NC(=O)[C@H](CCCCN)NC(=O)[C@H](CC(N)=O)NC(=O)[C@H]1CCCN1C(=O)[C@H](CCC(=O)O)NC(=O)[C@H](Cc1c[nH]c2ccccc12)NC(=O)[C@@H](NC(=O)[C@H](Cc1c[nH]c2ccccc12)NC(=O)[C@@H](N)CO)[C@@H](C)O)C(=O)N[C@@H](Cc1c[nH]c2ccccc12)C(=O)N[C@@H](CCCCN)C(N)=O) [trpzip3] | 195 ± 2 | 78.7 ± 0.2 | 37.0 | 13020 ± 70 |  |  |  |  |  |  |  |  | 1.00 ± 0.04 | 
